The record followed here is a protein production outcome set (Wang et al. 2014).

This series can be described thus: label from the status in PepcDB records.
“MSYRGLPAMTRNDLTIYDDVAAQWWSDDIRWVRTLKAMVPGRLAFFDRKIDWRDKRVLDLGCAGGFMAEALCERGAIVTGIDPAAQAIDAAREHAELDGHDIRYDVGKGETLPYADDSFDAVVCVDVLEHVEDLDLVLSEVARTLVPGGMFFFDTINRNPLARFATITMAEDILRLLPKGTHDPDMFIKPGELHAALGRAGFVPGR”: the protein production result is given as “failed”.
Under “MNSIWKQYIDILQGVVKPALGCTEPICAAYAASVATQMLGSKPETIDVFVSDNLYKNSMGVFVPRTGRVGLAIAAATGAIGGNPDAGLEVLAKITEEEVDEAQKLIDNGCVVVQRETTDEFIYCRVIAKNAVHNAEVTISGGHTLIIEKRLDDNVIFTLDSSLPKTSTASICDGVDITISSIYDFATQAEFDDIKFILEAKELNIALAQEGLNNPYGLEVGRTYQKNIEKGLLAKSLDSDILIYTSAASDARMGGATLPAMSNYGSGNQGIAATIPVVKMADFFNADDEKLARAFIMSHLGAIYIKSHYPPLSAFCGNAVTSAAASMAMVYLAGGTFEQSCSAIQNTISDTSGMICDGAKSTCAMKVGSSAQSAMKSALLALNDHCVTKQGVIADDVEKTIKNIGRMITTGMPNIDHEIIEIMAS” stands “failed”.
With “MKNLLKRYVSIKNIIKVIELDFFANLKLRYYKLAMKLFKIEDEKFDEILLKAGMNAVSSTYLPVVFLTSIILGLIIFIIFLIVFNIFYAIFGLIGGIFIVILIGVLYPYVLAEEKAKSIDENLPYAFAFISALSSANIPVVEIFTSLSKEDIYGGMSKEAKEIVKDTKVFNYDIITTFLRRARITPSKKLSSVYYNIVASLIVGAEMKNIFHEIYERLMEDRKLELFEAIEKVEILSEFYVIACGMIPLFVVMTVPVASSISAILQTASLFGDPKLLPLTFYLWVPIASIIFMGLVYGILPKDFKLNVSLLDVLKEFDEPEIEGIKMKFKWKPVHFITLFFWMLSIISFMLFFIRKSIFKFHGTDFLMFGILFLILPFILTSYWHFIIENQKERYYPIFLNDLTMAVRSGMDIIRAMQVCARTNYGPLTKIVKKMAIQMSWGRPVNEVFADLERTEKSLIAKRIASILKECAVSGGDVKDILTSVTVHAYKLSEMKREISARQFIYVVVIYLSFFLYIGTSYIMVHSLLPTLLKNIHGLSVEFYKNYLFQGILIYSIFSGASLGILTERSIIAGIKHILLMLIVGYMLFKFYIGG”, the protein production result is reported as “failed”.
With “MNTYAQESKLRLKTKIGADGRCVIEDNFFTPPFKLMAPFYPKDDLAEIMLLAVSPGMMRGDAQDVQLNIGPNCKLRITSQSFEKIHNTEDGFASRDMHIVVGENAFLDFAPFPLIPFENAHFKGNTTISLRSSSQLLYSEIIVAGRVARNELFKFNRLHTKISILQDEKPIYYDNTILDPKTTDLNNMCMFDGYTHYLNLVLVNCPIELSGVRECIEESEGVDGAVSETASSHLCVKALAKGSEPLLHLREKIARLVTQTTTQKV” the entry was “failed”.
For “MEQRRLASTEWVDIVNEENEVIAQASREQMRAQCLRHRATYIVVHDGMGKILVQRRTETKDFLPGMLDATAGGVVQADEQLLESARREAEEELGIAGVPFAEHGQFYFEDKNCRVWGALFSCVSHGPFALQEDEVSEVCWLTPEEITARCDEFTPDSLKALALWMKRNAKNEAVETETAE”, the protein production result is on record as “not failed”.
With “MKLSDFIKTEDFKKEKHVPVIEAPEKVKKDEKVQIVVTVGKEIPHPNTTEHHIRWIKVFFQPDGDPYVYEVGRYEFNAHGESVQGPNIGAVYTEPTVTTVVKLNRSGTIIALSYCNIHGLWESSQKITVEE” the entry was “not failed”; with “MQSIRSILVVIDPTPGESLALKRAKLIAGVTQAHLHLLVCDRKHEHSALLSVLKSSLTGEGYSVTTEQAWNESLHETIIDVQQAEGCGLVIKQHLPDAPLKKALLTPADWKLLRYCPTPVLLVKTATPWVGGVVMAAIDVGNMDGEHRALHASIVDHGFDIASLAKAQLHVISAHPSPMLSAADPVFQLKETIEARYREQCKAFQAEFDIDDAHLHIEEGPADVLIPHLAHKLGAVLTIIGTVARTGISGALIGNTAEVVLDSLDSDVLVLKPADIMDHLEELAAKA”, “not failed”; with “MDLEINKGIGRNVEFKGLESQYLFIFCGGLLAVFVVFVILYMAGVNQWVCIGFGVAAATLLVWLTFRLNARYGTHGLMKAAARRRHPRYVVNRLKIPRLFTFKHWQE”, “failed”.
Under “PPVIRQGPVNQTVAVDGTFVLSCVATGSPVPTILWRKDGVLVSTQDSRIKQLENGVLQIRYAKLGDTGRYTCIASTPSGEATWSAYIEVQEFGVPVQPPRPTDPNLIPSAP” stands “not failed”.
With “MSQEIAVIGSPAFTTGFQLAGVRKVENVADDEKDDDLDAAVEAVLADEDVGIAVMHDDDLAHLSRGVRQSVEASVEPTFVTIGGGASGASGLRDQIKRAIGIDLMDDDDDASAADTEAGDLEHHHHHH” the entry was “not failed”; with “MGHHHHHHSHCDSDCLWVGLAGPQILPPCRSIVRTLHQHKLGRASWPSVQQGLQQSFLHTLDSYRILQKAAPFDRRATSLAWHPTHPSTVAVGSKGGDIMLWNFGIKDKPTFIKGIGAGGSITGLKFNPLNTNQFYASSMEGTTRLQDFKGNILRVFASSDTINIWFCSLDVSASSRMVVTGDNVGNVILLNMDGKELWNLRMHKKKVTHVALNPCCDWFLATASVDQTVKIWDLRQVRGKASFLYSLPHRHPVNAACFSPDGARLLTTDQKSEIRVYSASQWDCPLGLIPHPHRHFQHLTPIKAAWHPRYNLIVVGRYPDPNFKSCTPYELRTIDVFDGNSGKMMCQLYDPESSGISSLNEFNPMGDTLASAMGYHILIWSQEEARTRK”, “failed”; with “MVKKFKRVLVANRGEIAIRIFRACHELGIRTVAIYSEEDKLALFRTKADESYLIGQNKGPVDAYLNIDEIINLALKKGVDAIHPGYGFLSENSEFSRRCTEAGIEFIGPTGDMMDKLGDKINSKLAAKAAGVKTIPGVEKPIETEQQAIEFARTCGYPVMVKAAAGGGGRGMRIVEKEEDLIAACRSAKSEAKKAFGIEDIFIEKYLEGPKHIEVQVLGDKYGNIVHLYERDCSVQRRHQKVIELTPAVSMSEEKRLEICEDALKIARSIGYRSAGTLEFLLDKHGNHYFIEMNPRVQVEHTITEMVTGIDIVQSQILIAEGYKLNSPEVGINSQEDIHVNGYAIQCRITTEDPSNSFAPDTGKIDVYRTGSGFGIRLDGGNGFTGAVISPYYDSLLVKSTSWSRTFEDAIRKAIRAIKETYISGVKTNIDFLINVLNHETFRKGLCDTNFIANNPELFEITPRIDTELRVLKFIGEKVVNETHGHKIEVDVPSVPKYEIKEPLRGTKQILDEKGPKGLVEWIKDQDKLLLTDTTMRDAHQSLMATRLRTVDMVKIAKAESVLAKDLFSMEMWGGATFDTAYRFLKESPWERLERLRKRVPNVLFQMLLRGANAVGYKNYPDNVIREFIKQSSKSGIDVFRIFDSLNWVKGMEVAIDEVLNQGKVAEACMCYTGDILDTNRDKYTLNYYVNLAKEIEKSGAHILGIKDMSALLKPYAALKLIRALKNEISIPIHLHTHDTTGNGVATVLMAAHAGVDIADTAFNSMSGLTSQPALNSVVAALKNTDRDTKMDIGDLQKISDYWSTVRPVYSKFESGLKAVSAEIYKYEIPGGQYSNLKPQVESFGLGHRFEQVKEMYREVNIMLGDIVKVTPSSKMVGDLAIFMVQNELTSENILEKAKDMPFPDSVVSYFKGMMGQPKGGFPKELQKIVLKDEEAITCRPGELLPDEDFDKIRVRLKKENKIEPTDKDVISYALYPDVFEEYLKYKNEYGDLSRMGSDVFFHGLAEGEISELEIAEGKTLVVQLLHIGKLDKQGNRTLVFEVNGNRREIKIKDKVSSTKSEIVEEIVIADSSNKKEIGASIPGNVVKVFVKPGDKVKKGDSLMVIEAMKMETNVSVSEDGTVGGIFVKEGDQVQSGQLLVKLD”, “failed”.
Take “MTVRVCKMDGEVMPVVVVQNATVLDLKKAIQRYVQLKQEREGGVQHISWSYVWRTYHLTSAGEKLTEDRKKLRDYGIRNRDEVSFIKKLGQK”: the protein production entry was “not failed”.
Under “QAEMTQRMQQLEALNDLNRAILAASDAEQIAQIGLRSLRRQVPFWGATAMLIDWESSCARVLAIERAPGASYDPGQRLSLVSYGMEDLERMKRGETCVVTDLGQIPRRALTLERLYQQGIQSYARIPLLAEGRLLGMLNLASDAVGAFDAAQLDVAQAYARHLAVSLQQSLL” stands “failed”; under “MRIDKFLQSVGLVKRRVLATDMCNVGAVWLNGSCAKASKEVKAGDTISLHYLKGIEEYTILQIPALKNVPRKDTHLYIAPKTKE”, “failed”.
With “MEIRNVKGTKDYLPEEQVLRSKIKRACEDTFERYGCKPLETPTLNMYELMSYKYGGGDEILKEIYTLQDQGKRDLALRYDLTIPFAKVVAMNPNIRLPFKRYEIGKVFRDGPIKQGRFREFIQCDVDIVGVESVMAEAELMSMAFELFQTLNLEVTIQYNNRKLLNGILQAINIPTELTSDVILSLDKIEKIGIDGVRKDVLERGISEEMADTICNTVLSCLQLSIADFKEAFNNPLVADGVNELQQLQQYLIALGINENTIFNPFLARGLTMYTGTVYEIFLKDGSITSSIGSGGRYDNIIGAFRGDDMSYPTVGISFGLDVIYTALSQKETISST” the entry was “not failed”; with “ALPDPVKPKAPKAVNPFHLGMAGYTFVNFDLDTTLKTLERLDIHYLCIKDFHLPLNSTDEQIRAFHDKCAAHKVTGYAVGPIYMKSEEEIDRAFDYAKRVGVKLIVGVPNYELLPYVDKKVKEYDFHYAIHLHGPDIKTYPDATDVWVHTKDLDPRIGMCLDVGHDLRNGCDPVADLKKYHTRVFDMHIKDVTDSSKAGVGIEIGRGKIDFPALIRMMREVNYTGMCSLEYEKDMKDPFLGIAESIGYFKAVSDLT”, “not failed”.
For the sequence “MTLPRLILPLLIAAACALGGCAYNPDLGRDQLLIVNDNNLARDGEKAWADALRTSHVSKEPRKNARVQAVGQRVIVAAGLAGRPWEYAVFLEEAPNAFVLPGGYVGVTVGLLSLVENDDQLAAVIGHEAGHVVARHAAERVSQETTSKVLLGIAKAAAGGTEFGKLLKDHGEDATRYGLLLPFSRKQELEADKLGVDFMQRAGYRPREAVKLWRNMQALDGGKSGGDLGSTHPSDAVRIQELERYLASKGWLEHHHHHH”, the protein production result is listed as “failed”.
Turning to “MEGKTLIVSVLIMSLFMAQNQVDANICCPSIQARTFYNACLFAVGSPSSCIRNSSCLDISESTCPRGYTNDILENTGDAVTEYCKLGCVSSVCGALTILQNSDASEIVNGEVEKCTMACSTVCTKGSMNAVENA”, the protein production entry is “failed”.
Under “MRRPPVVGVLLAAGRGSRFDPDGTVNKLLAALPDGTPVAVQAARHLRAVLDDVVAVVPAAGTHGAEVERLAALLAEAGCEVLRCARAARGMGASLAAGVAARPHAGGWIIALADMPWLAPHTIARVAQALDARHCVAPFHQGRRGHPIGFGADYFAGLAALDGDEGARALIDPARLIRLDVGDAGTLRDVDTPADVCGA” stands “failed”; under “MSLGRTDAIALAYPSRPRVLNNSTFLEMISWIGIELGKRGLDLLLIPDEPGEKYQSLIHLVETRRVDALIVAHTQPEDFRLQYLQKQNFPFLALGRSHLPKPYAWFDFDNHAGASLAVKRLLELGHQRIAFVSTDARISYVDQRLQGYVQTMSEAGLMPLAGYLQKADPTRPGGYLAASRLLALEVPPTAIITDCNMLGDGVASALDKAGLLGGEGISLIAYDGLPDDSLLDIAVTPIVQNTRTSVGKQIASMICDLLGGKDPKELQVLWQPEIGEGETDGVNRRGEGHHHHHH”, “not failed”; under “MSTPYRPAMHHAWRLLPLGMAVASPLLAAEPLNLDAVNVTGFSEQESASDYRAGRASIYGLDQALLLDTPASVSVFSEALIKDRQAKLLSDVLRNDASVGEGYAPVGYYENFVVRGFSLNAANSYRINGRSIAGEQNVALENKQQVELLKGLSGLQSGVSEPGGVINYQTKRAQD”, “failed”.
